Measurements published in paper PMC12583656, “Conserved interfaces mediate multiple protein–protein interactions in a prokaryotic metabolon” (Molecular Systems Biology, 2025).
Residue numbers refer to the chain shown, from its start. Numbers in names are those of the source.

T1: FolK, purified protein (E. coli, UniProt P26281 1-159)
T1 construct: FolK of E. coli (encoded by the gene folK); Expression and purification are not described
T1 sequence: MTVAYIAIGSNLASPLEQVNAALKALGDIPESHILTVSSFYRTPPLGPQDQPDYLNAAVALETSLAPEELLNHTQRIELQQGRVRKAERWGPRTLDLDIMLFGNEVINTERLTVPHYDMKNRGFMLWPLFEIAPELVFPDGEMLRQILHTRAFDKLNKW

B1: DHFR, wild type, purified protein (enzyme, E. coli)
chain: MISLIAALAVDRVIGMENAMPWNLPADLAWFKRNTLNKPVIMGRHTWESIGRPLPGRKNIILSSQPGTDDRVTWVKSVDEAIAACGDVPEIMVIGGGRVYEQFLPKAQKLYLTHIDAEVEGDTHFPDYEPDDWESVFSEFHDADAQNSHSYCFEILERR
notes: dihydrofolate reductase (DHFR, FolA) of E. coli; Expression and purification are not described; also called WT DHFR; WT-DHFR
B2: D132H DHFR, purified protein (enzyme, E. coli)
chain: B1 chain with D132H
notes: dihydrofolate reductase (DHFR) of E. coli with one substitution; as m28; Expression and purification are not described; also called D132H mutant of DHFR
B3: N23V DHFR, purified protein (enzyme, E. coli)
chain: B1 chain with N23V
notes: dihydrofolate reductase (DHFR) of E. coli with one substitution; as m28; Expression and purification are not described; also called N23V mutant of DHFR
B4: D144N DHFR, purified protein (enzyme, E. coli)
chain: B1 chain with D144N
notes: dihydrofolate reductase (DHFR) of E. coli with one substitution; as m28; Expression and purification are not described; also called D144N mutant of DHFR

Assays:
[1] = target: adenylate kinase (Adk), split-YFP fusion (E. coli) (UniProt P69441); assay: split reporter (BiFC, NanoBiT); split monomeric EYFP (155/156) in living E. coli BW27783; NYFP fusion IPTG-induced, CYFP fusion arabinose-induced (0.2% arabinose, 1 mM IPTG), 30 °C 4-5 h; mean fluorescence intensity (MFI) of 30,000 cells by flow cytometry; both configurations measured, the higher value used; inducers also titrated for three pairs
Sequence of adenylate kinase (Adk), split-YFP fusion (E. coli) (P69441 whole entry, the tested form may be a part): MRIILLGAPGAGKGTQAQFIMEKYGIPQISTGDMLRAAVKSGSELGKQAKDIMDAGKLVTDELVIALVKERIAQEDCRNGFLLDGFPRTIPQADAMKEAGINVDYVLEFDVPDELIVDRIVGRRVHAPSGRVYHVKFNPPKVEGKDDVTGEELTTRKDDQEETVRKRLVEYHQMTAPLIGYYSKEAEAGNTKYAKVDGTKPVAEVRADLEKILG

[2] = target: T1, FolK, purified protein; assay: Raman spectroscopy; titration: DHFR 7.5-50 µM, FolK fixed at 15 µM; area of the interaction-specific peak at ~1663 cm^-1 against DHFR concentration, hyperbolic fit; conditions: both partners purified

Molecule | MFI (mean YFP fluorescence intensity) [1] | Kd [2] [µM]
dihydrofolate reductase (DHFR, FolA), split-YFP fusion (from UniProt P0ABQ4 1-159) (enzyme) | 641 | –
B1 | – | 22
B2 | – | 8.1
B3 | – | 5.1
B4 | – | 10
